In PMC6065357:
Values belong to the substance of their own block, whether it stands above or below them.

Legend:
[1] = molecular target: NGF in the sSorCS2-NGF crystal (degradation product of the proNGF construct) (UniProt P01139); assay: crystal structure; sSorCS2 mixed with proNGF 1:1.1, 1 mM calcium chloride; proNGF degraded to NGF in the drop; 0.225 M MES/bis-tris pH 6.6; 3.9 Å
[2] = molecular target: mouse SorCS2 mature extracellular segment (sSorCS2, residues 117-1072) (mouse) (UniProt Q9EPR5); assay: as above
Sequence of mouse SorCS2 mature extracellular segment (sSorCS2, residues 117-1072) (mouse) (Q9EPR5 117-1072): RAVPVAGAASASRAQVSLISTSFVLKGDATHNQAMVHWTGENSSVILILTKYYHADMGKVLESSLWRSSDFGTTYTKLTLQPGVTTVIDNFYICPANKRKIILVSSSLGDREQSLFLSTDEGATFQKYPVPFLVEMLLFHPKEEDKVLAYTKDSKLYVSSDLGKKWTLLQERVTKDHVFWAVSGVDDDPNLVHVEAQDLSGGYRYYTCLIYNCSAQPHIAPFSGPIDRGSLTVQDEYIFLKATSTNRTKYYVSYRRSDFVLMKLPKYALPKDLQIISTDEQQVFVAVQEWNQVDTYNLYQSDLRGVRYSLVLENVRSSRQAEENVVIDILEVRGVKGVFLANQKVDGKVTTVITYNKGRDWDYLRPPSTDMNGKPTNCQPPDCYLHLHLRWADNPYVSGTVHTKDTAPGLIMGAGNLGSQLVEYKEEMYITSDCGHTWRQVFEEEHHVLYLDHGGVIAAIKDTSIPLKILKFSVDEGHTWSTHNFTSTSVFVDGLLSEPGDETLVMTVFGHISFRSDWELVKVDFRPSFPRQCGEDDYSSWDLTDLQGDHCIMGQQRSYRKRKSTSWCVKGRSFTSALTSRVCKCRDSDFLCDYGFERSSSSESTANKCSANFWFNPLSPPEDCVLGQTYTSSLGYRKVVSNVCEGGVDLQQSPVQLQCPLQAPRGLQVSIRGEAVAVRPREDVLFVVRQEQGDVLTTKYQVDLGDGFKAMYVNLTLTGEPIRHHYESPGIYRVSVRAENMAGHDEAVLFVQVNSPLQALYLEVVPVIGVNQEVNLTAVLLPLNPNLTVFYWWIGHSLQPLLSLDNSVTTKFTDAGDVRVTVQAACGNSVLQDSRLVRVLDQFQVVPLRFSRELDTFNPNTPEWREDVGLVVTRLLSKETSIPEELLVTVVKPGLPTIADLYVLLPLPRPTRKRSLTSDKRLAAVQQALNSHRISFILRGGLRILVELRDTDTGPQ

[3] = molecular target: pro-nerve growth factor (proNGF, residues 19-241, furin sites changed to AA) (UniProt P01139); assay: SPR; IBIS MX96; NGF, proNGF and proBDNF amine-coupled to a P-COOH SensEye sensor; wt and mutant sSorCS2 flowed as analyte; 25 mM HEPES pH 7.4, 150 mM NaCl, 0.005 % Tween 20; 25 °C; equilibrium binding, one site saturation model (two site saturation model for proBDNF)
[4] = molecular target: mouse mature nerve growth factor (NGF) (mouse) (UniProt P01139); assay: as above
Sequence of mouse mature nerve growth factor (NGF) (mouse) (P01139 122-241): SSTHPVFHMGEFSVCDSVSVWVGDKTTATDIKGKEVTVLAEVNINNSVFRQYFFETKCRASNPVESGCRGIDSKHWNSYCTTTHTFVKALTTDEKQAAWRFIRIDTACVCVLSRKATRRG

Sequence of mouse SorCS2 mature extracellular segment (sSorCS2, residues 117-1072), Q9EPR5 117-1072 (receptor; other documents disagree on this pair) (Q9EPR5 117-1072): as the sequence (Q9EPR5 117-1072) above
Sequence of mouse SorCS2 mature extracellular segment (sSorCS2, residues 117-1072) (Q9EPR5 117-1072): as above

stoichiometry N [1]: 2 | stoichiometry N (NGF chains per sSorCS2 chain) [2]: 2
Substance: NGF in the sSorCS2-NGF crystal (degradation product of the proNGF construct) (from UniProt P01139 122-241) (ligand)

Kd [3]: 43 nM
Substance: mouse SorCS2 mature extracellular segment (sSorCS2, residues 117-1072) (from UniProt Q9EPR5 117-1072) (receptor)

Kd [4]: 236 nM
Substance: mouse SorCS2 mature extracellular segment (sSorCS2, residues 117-1072), Q9EPR5 117-1072 (receptor; other documents disagree on this pair)
